US20060193821

What was measured:
[1] = molecular target: T1, IL-23 (human, p19/p40 heterodimer) (Homo sapiens) (UniProt Q9NPF7+P29460); experiment: cell_activity; conditions: 2'-F C and U, 2'-OH A and G; TransAM STAT3, PHA blasts
[2] = molecular target: T1, IL-23 (human, p19/p40 heterodimer) (Homo sapiens); experiment: filter; conditions: 2'-F C,U; SHMCK, tRNA

T1 sequence (Q9NPF7 20-189, chain 1 of 2): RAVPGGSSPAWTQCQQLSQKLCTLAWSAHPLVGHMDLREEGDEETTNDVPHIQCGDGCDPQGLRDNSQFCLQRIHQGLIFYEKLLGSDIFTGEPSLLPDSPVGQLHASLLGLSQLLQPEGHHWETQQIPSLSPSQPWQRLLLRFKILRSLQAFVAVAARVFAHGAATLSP
T1 sequence (P29460 23-328, chain 2 of 2): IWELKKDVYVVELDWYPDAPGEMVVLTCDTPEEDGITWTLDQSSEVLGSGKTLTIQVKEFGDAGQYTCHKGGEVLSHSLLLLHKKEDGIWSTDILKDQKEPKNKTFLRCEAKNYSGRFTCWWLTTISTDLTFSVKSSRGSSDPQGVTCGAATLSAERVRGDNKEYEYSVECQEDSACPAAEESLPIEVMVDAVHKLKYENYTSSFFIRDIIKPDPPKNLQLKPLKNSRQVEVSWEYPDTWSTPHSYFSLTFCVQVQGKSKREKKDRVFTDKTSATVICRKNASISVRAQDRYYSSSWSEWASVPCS

Work on “AGGGAAAAGGAAUCAUACACAAGAUGUAUCAUCCGGUCGUACAAAAGCGCCACGGAACCAUUCGCUCCGCCAGANACCAACCGAGAA [ARX33-plate1-H01]” yielded an IC50 [1] greater than 5000 nM and a Kd [2] of 77.8 nM.
